# Results published in patent US20170210813A1 (Regeneron, published 2017).
# B1: H2M3363N (antibody, V domains shown)
# VH: QVQVQESGPGLVKPSETLSLTCTVSGDSISSSSYYWGWIRQPPGKGLEWIGSIYYNGISSYNPSLKSRVTISVESSKNQFSLRLASVTAADTALYYCARHRAARRFSEAFDIWGQGTMVTVSS
# VL: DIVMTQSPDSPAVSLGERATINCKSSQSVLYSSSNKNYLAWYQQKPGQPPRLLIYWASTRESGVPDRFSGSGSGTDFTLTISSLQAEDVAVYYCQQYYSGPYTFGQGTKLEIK
# notes: mouse Fc (H2M prefix; isotype not spelled out)
# B2: H1M3361N (antibody, mouse IgG1, V domains shown)
# VH: EVQLVESGGGLVQPGGSLRLSCAASGFTFSSYWMTWVRQAPGKGLEWVANIRQDGSDKYYVDSVKGRFTISRDNAKNSLFLQMNSLRAEDTAVYYCARTNGGTYGYNHYYYGMDVWGQGTTVTVSS
# VL: DIQMTQSPSSLSASVGDRVTITCRASQGIRNDLGWYQLKPGKAPKRLIFAASSLQSGVPSRFSGSGSGTEFTLTISSLQPEDFATYYCLQHNSYPWTFGQGTKVEIK
# notes: mouse IgG1 Fc (H1M prefix)
# B3: H4H3095S (antibody, human IgG4, V domains shown)
# VH: EVQLVESGGGLVQPGGSLRLSCGASGFTFSSYWMTWVRQAPGKGLEWVGNINQDGSEKYSVDSVKGRFTISRDNAKNSLYLQMNRVRAEDTAVYYCSRDLVPPRQGDNYYYFGMDVWGLGTTVTVSS
# VL: DIQMTQSPSTLSASVGDRVIITCRASQNINNWLAWYQQQPGKAPKLLIYEASSLESGVPSRFSGSGSGTEFTLTIGSLQPDDFATYYCQHYNSYSRTFGQGTKVDIK
# notes: human IgG4 Fc (H4H prefix)
# B4: H2M3365N (antibody, V domains shown)
# VH: EVQLVESGGGLVQPGRSLRLSCAASGFTFDDFAMHWVRQVPGKGLEWVSGISWSSGTIGYVGSVKGRFTISRDNAKNSLYLQMNSLRAEDTAMYFCTKDKAAFHDAFDIWGQGTMVTVSS
# VL: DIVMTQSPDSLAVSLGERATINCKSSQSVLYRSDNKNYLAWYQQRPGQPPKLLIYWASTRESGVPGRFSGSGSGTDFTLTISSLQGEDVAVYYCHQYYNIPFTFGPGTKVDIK
# notes: as for B1
# B5: H1M3305N (antibody, mouse IgG1, V domains shown)
# VH: QLQLQESGPGLVKPSETLSLTCIVSGGSISSSSYYWGWIRQPPGKGLEWIGSLYYSGITFYNPSLKSRVTISVDTSKNQFSLTLTSVTAADTAVFYCARHRVMASSPFDHWGQGTLVTVSS
# VL: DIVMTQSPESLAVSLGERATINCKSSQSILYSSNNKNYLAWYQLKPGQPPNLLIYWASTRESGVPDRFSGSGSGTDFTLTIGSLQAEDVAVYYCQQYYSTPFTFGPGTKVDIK
# notes: human variable domains with mouse constant domains, mouse IgG1 Fc (H1M prefix)
# B6: H1M3310N (antibody, mouse IgG1, V domains shown)
# VH: EVQLLESGGDLVQPGGSLRLSCAASGITFSSFAMSWVRQAPGKGLEWVSTVSVSAGITYYADSVKGRFTISRDNSKNTLYLQMNSLRAEDTAIYYCAKSSCTTNSCPAYFDYWGLGTLVTVSS
# VL: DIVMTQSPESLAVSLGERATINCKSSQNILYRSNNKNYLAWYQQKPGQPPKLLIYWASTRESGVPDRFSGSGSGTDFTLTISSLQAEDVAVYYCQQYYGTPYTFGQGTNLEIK
# notes: mouse IgG1 Fc (H1M prefix)
# B7: H1M3299N (antibody, mouse IgG1, V domains shown)
# VH: QVQLVESGGGVVQPGRSLRLSCAASGFTFSSYGLHWVRQAPGKGLEWVALISNVGSNKYYADSVKGRFTISRDNSKNSLFLQMNSLRAEDTAVYYCAKGADYYYYGMDVWGQGTTVTVSS
# VL: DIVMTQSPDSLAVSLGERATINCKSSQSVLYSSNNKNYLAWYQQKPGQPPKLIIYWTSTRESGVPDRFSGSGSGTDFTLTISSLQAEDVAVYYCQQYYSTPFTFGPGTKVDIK
# notes: mouse IgG1 Fc (H1M prefix)
# Biological target: full length human PDGFR-beta on HEK293 cells (human, UniProt P09619 33-1106)
# Test: cell-based or functional assay
Binder,"IC50, blocking PDGF-BB (250 pM) activation, SRE-luciferase","IC50, blocking PDGF-DD (400 pM) activation, SRE-luciferase"
B1,7.5e-09 M,1.9e-10 M
B2,6.8e-09 M,8.4e-11 M
B3,6.1e-10 M,8.2e-10 M
B4,7.9e-09 M,1.1e-10 M
B5,8.5e-09 M,1.9e-10 M
B6,2.3e-08 M,2.8e-10 M
B7,5.6e-10 M,4.2e-10 M

# Biological target: T1, human PDGFRb.hFc (human)
# T1 construct: Soluble dimeric construct with human Fc; also called hPDGFRb.hFc
# Test: SPR, mAb captured, 25 C
# Protocol: (§1) Antibodies, expressed as either mouse Fc (prefix H1M; H2M) or human Fc (prefix H4H), were captured on their respective anti-Fc sensor surfaces (Mab capture format). […] Kinetic association (kₐ) and dissociation (kd) rate constants were determined by processing and fitting the data to a 1:1 binding model using Scrubber 2.0 curve fitting software.
Binder,Kd,koff,kon,t1/2
B3,0.72 nM,0.000232 s⁻¹,321000 M⁻¹ s⁻¹,0.833 h

# Biological target: T2, Macaca fascicularis PDGFRb.mmh (Macaca fascicularis)
# T2 construct: Soluble monomeric construct; also called mfPDGFRb.mmh
# T2 chain: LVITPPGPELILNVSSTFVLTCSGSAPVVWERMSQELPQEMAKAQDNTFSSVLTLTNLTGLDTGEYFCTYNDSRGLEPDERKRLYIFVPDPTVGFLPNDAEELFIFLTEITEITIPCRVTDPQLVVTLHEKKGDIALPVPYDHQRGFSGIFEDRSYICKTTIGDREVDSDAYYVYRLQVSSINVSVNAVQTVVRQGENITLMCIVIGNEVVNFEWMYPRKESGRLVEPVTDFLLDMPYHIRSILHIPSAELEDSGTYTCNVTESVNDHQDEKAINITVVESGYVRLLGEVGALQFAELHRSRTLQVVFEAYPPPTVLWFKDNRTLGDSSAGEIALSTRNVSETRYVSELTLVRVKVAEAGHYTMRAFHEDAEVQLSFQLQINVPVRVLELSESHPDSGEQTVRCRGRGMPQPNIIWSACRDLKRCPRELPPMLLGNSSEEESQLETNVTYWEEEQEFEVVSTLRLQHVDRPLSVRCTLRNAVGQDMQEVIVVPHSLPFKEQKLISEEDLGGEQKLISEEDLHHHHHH
# Test: SPR, mAb captured, 25 C
# Protocol: as §1
Binder,Kd,koff,kon,t1/2,binding result
B1,1.4 nM,6.85e-05 s⁻¹,50000 M⁻¹ s⁻¹,2.82 h,–
B2,3.9 nM,3.89e-05 s⁻¹,10000 M⁻¹ s⁻¹,4.95 h,–
B3,8.5 nM,0.00175 s⁻¹,207000 M⁻¹ s⁻¹,0.117 h,–
B4,3.4 nM,0.000206 s⁻¹,60000 M⁻¹ s⁻¹,0.933 h,–
B5,0.816 nM,4.16e-05 s⁻¹,51000 M⁻¹ s⁻¹,4.63 h,–
B6,≤ 0.1 nM,1e-06 s⁻¹,–,192 h,–
B7,–,–,–,–,no binding

# Biological target: T3, human PDGFRb.mFc (human)
# T3 construct: Soluble dimeric construct with mouse Fc; also called hPDGFRb.mFc; soluble human PDGFR-beta.mFc
# T3 chain: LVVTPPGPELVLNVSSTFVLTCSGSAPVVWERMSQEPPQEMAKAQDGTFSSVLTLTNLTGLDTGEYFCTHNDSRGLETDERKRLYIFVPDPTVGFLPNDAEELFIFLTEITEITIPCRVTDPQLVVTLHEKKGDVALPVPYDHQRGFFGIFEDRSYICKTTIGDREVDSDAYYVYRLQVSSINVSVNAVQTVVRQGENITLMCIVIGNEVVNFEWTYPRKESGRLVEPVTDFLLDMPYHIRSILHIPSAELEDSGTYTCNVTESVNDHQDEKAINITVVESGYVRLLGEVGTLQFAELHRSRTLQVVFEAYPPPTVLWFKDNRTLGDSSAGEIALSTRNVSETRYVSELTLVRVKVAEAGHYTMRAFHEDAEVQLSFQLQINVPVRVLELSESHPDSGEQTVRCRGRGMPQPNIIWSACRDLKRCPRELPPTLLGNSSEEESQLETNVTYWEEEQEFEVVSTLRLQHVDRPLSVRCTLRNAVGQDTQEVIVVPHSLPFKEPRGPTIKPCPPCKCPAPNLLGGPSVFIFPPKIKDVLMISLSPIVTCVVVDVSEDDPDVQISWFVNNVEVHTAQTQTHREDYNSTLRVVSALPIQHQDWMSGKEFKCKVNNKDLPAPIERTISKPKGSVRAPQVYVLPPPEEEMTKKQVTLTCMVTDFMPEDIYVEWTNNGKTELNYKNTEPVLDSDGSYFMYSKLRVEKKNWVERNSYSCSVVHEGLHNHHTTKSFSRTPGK
# Test: SPR, mAb captured, 25 C
# Protocol: as §1
Binder,Kd,koff,kon,t1/2
B1,0.0386 nM,4.03e-06 s⁻¹,104000 M⁻¹ s⁻¹,47.8 h
B2,≤ 0.0765 nM,≤ 1e-06 s⁻¹,13100 M⁻¹ s⁻¹,192 h
B4,0.34 nM,8.01e-05 s⁻¹,236000 M⁻¹ s⁻¹,2.4 h
B5,≤ 0.00617 nM,≤ 1e-06 s⁻¹,162000 M⁻¹ s⁻¹,192 h
B6,≤ 0.0789 nM,≤ 1e-06 s⁻¹,12700 M⁻¹ s⁻¹,192 h
B7,6.35 nM,0.000165 s⁻¹,25900 M⁻¹ s⁻¹,1.17 h

# Biological target: T4, hPDGFRb.mmh (human, UniProt P09619 33-531)
# T4 construct: Soluble monomeric construct; also called soluble human PDGFR-beta.mmh
# Test: SPR, mAb captured, 25 C
# Protocol: as §1
Binder,Kd,koff,kon,t1/2
B1,46.8 nM,0.00333 s⁻¹,71100 M⁻¹ s⁻¹,0.05 h
B2,7.29 nM,0.00126 s⁻¹,173000 M⁻¹ s⁻¹,0.15 h
B3,4.78 nM,0.00136 s⁻¹,285000 M⁻¹ s⁻¹,0.133 h
B4,2.79 nM,0.000127 s⁻¹,45400 M⁻¹ s⁻¹,1.52 h
B5,0.808 nM,2.52e-05 s⁻¹,31200 M⁻¹ s⁻¹,7.63 h
B6,≤ 0.07 nM,≤ 1e-06 s⁻¹,14000 M⁻¹ s⁻¹,192 h
B7,43.5 nM,0.00092 s⁻¹,21100 M⁻¹ s⁻¹,0.217 h

# Biological target: T4, hPDGFRb.mmh
# Test: blocking ELISA, biot-hPDGFRb.mmh to coated PDGF-BB
# Protocol: The equilibrated PDGFR-beta/antibody solutions were added to ligand-coated plates, allowed to incubate for 1 hr, and washed. Levels of bound biot-hPDGFR-beta.mmh were detected using HRP conjugated streptavidin. Data were analyzed using Prism software and IC₅₀ values were calculated as the amount of antibody required to achieve 50% reduction of hPDGFR-beta-mmh bound to ligand. Maximum blocking values were also calculated and reflect the ability of the antibody to block relative to baseline. The absorbance measured at the constant amount of 250 pM biot-hPDGFR-beta-mmh on the dose curve is defined as 0% blocking and the absorbance with no added PDGFR-beta is defined as 100%. The absorbance of the wells containing the highest antibody concentration determined the maximum blocking percent.
Binder,% Maximum Blocking,IC50
B1,77%,4.1 nM
B2,76%,0.1 nM
B3,82%,1.4 nM
B4,82%,0.09 nM
B5,83%,0.085 nM
B6,88%,0.12 nM
B7,67%,7.6 nM

# Biological target: T1, human PDGFRb.hFc
# Test: SPR, mAb captured, 37 C
# Protocol: as §1
Binder,Kd,koff,kon,t1/2
B3,1.67 nM,0.00071 s⁻¹,425000 M⁻¹ s⁻¹,0.267 h

# Biological target: T2, Macaca fascicularis PDGFRb.mmh
# Test: SPR, mAb captured, 37 C
# Protocol: as §1
Binder,Kd,koff,kon,t1/2
B3,33.3 nM,0.00797 s⁻¹,239000 M⁻¹ s⁻¹,1.5 min

# Biological target: T4, hPDGFRb.mmh
# Test: SPR, mAb captured, 37 C
# Protocol: as §1
Binder,Kd,koff,kon,t1/2
B1,17.6 nM,0.00503 s⁻¹,286000 M⁻¹ s⁻¹,0.0333 h
B2,27.4 nM,0.00833 s⁻¹,304000 M⁻¹ s⁻¹,0.0233 h
B3,13.8 nM,0.00624 s⁻¹,452000 M⁻¹ s⁻¹,0.0333 h
B4,4.79 nM,0.000551 s⁻¹,115000 M⁻¹ s⁻¹,0.35 h
B5,0.88 nM,0.000102 s⁻¹,116000 M⁻¹ s⁻¹,1.88 h
B6,1.83 nM,6.46e-05 s⁻¹,35300 M⁻¹ s⁻¹,2.98 h
B7,68.6 nM,0.00217 s⁻¹,31600 M⁻¹ s⁻¹,0.0833 h
